From PMC3714855
Where “and” joins values, the source holds several entries; their conditions need not be identical. Identical values can stand only once. Blank lines part the entries; values can stand above or below the substance they belong to.

What was measured:
[1] = target: HA-tagged wild-type GluA2(R) (rat); experiment: native gel or EMSA
[2] = target: GluA2(Q)(V795W) with a C-terminal GFP tag (rat); experiment: SEC
[3] = target: HA-GluA2(R)-ΔM4 (rat); experiment: native gel or EMSA
[4] = target: GluA2(R)(G802W) (rat); experiment: native gel or EMSA
[5] = target: GluA2(Q)(L811W) with a C-terminal GFP tag (rat); experiment: SEC
[6] = target: GluA2(R)(V795W) (rat); experiment: native gel or EMSA
[7] = target: GluA2(Q)(A806W) with a C-terminal GFP tag (rat); experiment: SEC
[8] = target: wild-type GluA2(Q) with a C-terminal GFP tag (rat); experiment: SEC
[9] = target: GluA2(Q)(G802W) with a C-terminal GFP tag (rat); experiment: SEC
[10] = target: GluA1(E809W) with a C-terminal GFP tag (rat); experiment: SEC
[11] = target: GluA2(R)(L811W) (rat); experiment: native gel or EMSA
[12] = target: GluA2(R)-ΔM4, untagged (rat); experiment: native gel or EMSA
[13] = target: GluA2(R)(E813W) (rat); experiment: native gel or EMSA
[14] = target: GluA2(Q)(E813W) with a C-terminal GFP tag (rat); experiment: SEC
[15] = target: GluA1(L795W) with a C-terminal GFP tag (rat); experiment: SEC
[16] = target: wild-type GluA2(R), untagged (rat); experiment: native gel or EMSA
[17] = target: wild-type GluA1 with a C-terminal GFP tag (rat); experiment: SEC

Substance: HA-tagged wild-type GluA2(R) (receptor)
stoichiometry N [1]: 4 and 2

Substance: GluA2(Q)(L811W) with a C-terminal GFP tag (receptor)
stoichiometry N [5]: 4

Substance: GluA2(R)(V795W) (receptor)
stoichiometry N [6]: 2

Substance: wild-type GluA2(Q) with a C-terminal GFP tag (receptor)
stoichiometry N [8]: 4

Substance: GluA2(Q)(G802W) with a C-terminal GFP tag (receptor)
stoichiometry N [9]: 2

Substance: GluA1(E809W) with a C-terminal GFP tag (receptor)
stoichiometry N [10]: 2

Substance: GluA2(R)-ΔM4, untagged (domain or fragment)
stoichiometry N [12]: 2

Substance: GluA1(L795W) with a C-terminal GFP tag (receptor)
stoichiometry N [15]: 2

Substance: wild-type GluA2(R), untagged (receptor)
stoichiometry N [16]: 4 and 2

Now from value to substance:

stoichiometry N [2]: 2
Substance: GluA2(Q)(V795W) with a C-terminal GFP tag (receptor)

stoichiometry N [3]: 2
Substance: HA-GluA2(R)-ΔM4 (domain or fragment)

stoichiometry N [4]: 2
Substance: GluA2(R)(G802W) (receptor)

stoichiometry N [7]: 2
Substance: GluA2(Q)(A806W) with a C-terminal GFP tag (receptor)

stoichiometry N [11]: 4 and 2
Substance: GluA2(R)(L811W) (receptor)

stoichiometry N [13]: 2
Substance: GluA2(R)(E813W) (receptor)

stoichiometry N [14]: 2
Substance: GluA2(Q)(E813W) with a C-terminal GFP tag (receptor)

stoichiometry N [17]: 4
Substance: wild-type GluA1 with a C-terminal GFP tag (receptor)
